Laboratory results published in US20090181909.

What was measured:
[1] = test system: T1, L-AVP ((Arg8)-vasopressin) (Homo sapiens); assay: ITC; details: L-RNA, hexaethylene glycol (PEG) spacer between Helix 2 and Helix 1, 37 C, 20 mM Tris pH 7.4, 150 mM NaCl, 5 mM KCl, 1 mM MgCl2, 1 mM CaCl2
T1 sequence: CYFQNCPRG

L-oxytocin = molecular target: T2, L-oxytocin (UniProt P01178); assay: ITC; details: L-RNA; hexaethylene glycol (PEG) spacer between Helix 2 and Helix 1; 3'-C6-amino 40 kDa PEG; 37 C; same buffer; activity 69.8%; about ten times lower affinity than …
T2 sequence: CYIQNCPLG

[2] = test system: T3, D-AVP (D-(Arg8)-vasopressin, all-D peptide) (Homo sapiens); assay: competition; details: biotinylated D-AVP; selection buffer
T3 sequence: CYFQNCPRG

“GGGGUAGGGCUUGGAUGGGUAGUACACGUGUGCGUGGU [CHF-F-037-3'PEG spiegelmer]” showed a Kd ([1]; 3'-C6-amino 40 kDa PEG, activity 59.1%) of 1.3 nM and a Kd (L-oxytocin) of 16 nM.
“AGUGUGCGUGGUUAAUAAUGGGGUAGGGCUUGGAUGGGUAGUACACU [CHF-157-B4 (CHF-F-000)]” showed a Kd [2] of 9.5 nM.
“GGGGUAGGGCUUGGAUGGGUAGUACACGUGUGCGUGGU [CHF-F-037 spiegelmer]” showed a Kd ([1]; activity 46.8%) of 1.7 nM.
